Assay results reported in paper doi:10.1101/2025.02.22.639629 (bioRxiv, 2025).

B1: mature IL-37 (Lys53 N-terminus) (ligand, human, UniProt Q9NZH6 53-218, looked up)
chain: KNLNPKKFSIHDQDHKVLVLDSGNLIAVPDKNYIRPEIFFALASSLSSASAEKGSPILLGVSKGEFCLYCDKDKGQSHPSLQLKKEKLMKLAAQKESARRPFIFYRAQVGSWNMLESAAHPGWFICTSCNCNEPVGVTDKFENRKHIEFSFQPVCKAEMSPSEVSD
B2: IL-37 R158A (ligand, human, UniProt Q9NZH6 53-218, looked up)
chain: KNLNPKKFSIHDQDHKVLVLDSGNLIAVPDKNYIRPEIFFALASSLSSASAEKGSPILLGVSKGEFCLYCDKDKGQSHPSLQLKKEKLMKLAAQKESARRPFIFYAAQVGSWNMLESAAHPGWFICTSCNCNEPVGVTDKFENRKHIEFSFQPVCKAEMSPSEVSD

Target: the molecule itself
Test: SEC-MALS

Protein	stoichiometry N
B1	2
B2	2
